Results taken from the DeepSol protein solubility set.

Experiment: soluble on expression in E. coli; label from the status in PepcDB or PDB records

Sequence	soluble on expression in E. coli
MGSDKIHHHHHHMDIGDKGEMLSLLKALVNIDSGSYYKEGVDRVGRMLTNAFKQIGFKVAIFKQERYGDHLLFTHPHAFDPKILLVAHMDTVFPVGTAAARPFQLIGTRAYGPGVIDMKGSLVACLYAIKALVGAQSPAVKQVAVLMTSDEEIGAPSGREIIEKIGVGKKAVLVMEPARKDGSLVTARRGGGRYTLNVTGRAAHSGVEPEKGRSAIEELAHKIMKLHALSDYKSGISVNVGVIEGGTAVNTVADRAKAKVDIRISRLEQAEPLDRDIRRICGTPDVDGTTIELKGGITRPPMERNAQTVALFQLIQQVASTIGLELTETATGGSSDASFTSALGIPTIDGMGPVGGFPHSEKEYLRVDTMQERTLLLAKVIERLSE	not soluble
MSAIENIVISMENATERRKHITKQFESKKLSFSFFNAYTYQSINQSINQSINQSINQSINQSINQSINQSNSILHNIEESRILTKGEKGCLISHFLLWNKCVNENFEYLKIFEDDVILGENAEVFLNQNEWLKTRFDFNDIFIIRLETFLQPVKLEKQTKIPPFNSRNFDILKSTHWGTAGYIISQGAAKYVIEYLKNIPSDEIVAVDELIFNKLVDVDNYIVYQLNPAICIQELQANQSKSVLTSGLEKERQKRSKIRKKKTLKQRLTRIKENIIRALNRKKWKEQQRIKEMQGKEIVRFMLEHHHHHH	not soluble
MGSDKIHHHHHHMAAKKKSASSRKLNLGCGRDIREGWINLDSMALPGVDVVADLSLCATTPLPFEDSSIDEFLLSHLIEHIPDPLPLMQELWRIAKPGAKMQIRVPHGAHDDAWTNPTHVKPYFARSFGYFSQPWYWRADYGYRGDWQPELVTYSVPRRRFAGQMPAQILEQIDALRNVVQEMIVDLVAVKPLRQPKKDLMQAANIKIALME	not soluble
MAHHHHHHSLSILVTRPSPAGEELVSRLRTLGQVAWHFPLIEFSPGQQLPQLADQLAALGESDLLFALSQHAVAFAQSQLHQQDRKWPRLPDYFAIGRTTALALHTVSGQKILYPQDREISEVLLQLPELQNIAGKRALILRGNGGRELIGDTLTARGAEVTFCECYQRCAIHYDGAEEAMRWQAREVTMVVVTSGEMLQQLWSLIPQWYREHWLLHCRLLVVSERLAKLARELGWQDIKVADNADNDALLRALQEG	soluble
MGSDKIHHHHHHMVILHIIAGLEKGGAESTLKRLCLNGTEHEHVVVSLSTLGSVGLELQKAGVKVYCLDIRPSITSVAAIFRLYKIIKLRKPSVVQTWMYHADLVGGIVSRVAGVKKIYWGVHHTYLIKGQSKRVTIFISRINSVLSHFIPTKIVYCANSARVAQEKIGYNKKSGIVIFNGYDTSKFKRDLKLRSVYREKLGLKETDFVIGHVGRYDSLKDYPNLINAIRKVKYKVGGLKVILVGAGLSKDNRELLNVISESTLISKFHLLGPSDDIPGIMNAIDVFVLSSSSEAFPNVLNEAMACGTPCVSTDVGDASAIVGMTGWLSAAGDSSALAEKIYAAYKEFSENKANWEERQYSCRERIVTNFSSQSMVSNYTLLWQS	not soluble
MSGDDDIPEGLEAINLKMNATTDDSLESTRRMLALCEESKEAGIKTLVMLDDQGEQLERCEGALDTINQDMKEAEDHLKGMEKCCGLCVLPWNKTDDFEKTEFAKAWKKDDDGGVISDQPRITVGDSSMGPQGGYITKITNDAREDEMDENVQQVSTMVGNLRNMAIDMSTEVSNQNRQLDRIHDKAQSNEVRVESANKRAKNLITK	not soluble
MGSDKIHHHHHHMLELLEPIAIFTHVARAGSFSAAARRLGISKSKVSTQVADLEHRLGVQLIQRTTRSLSLTEAGHLLYLQGEELLRDAEQAIASVHNLNDATRGVLKVGISQSFGVMHIIPALPSFMAKHPELELQVSLLDHKVDVVSEGLDLLLTMSEQLPLGMVARPLMKCQFLLVASPGYIAQHGEPTRPEQLVDHNCLVYQGEWHEHSMWQFKKGDDYCEIGVSGNFRVDNAPALKSAAISGLGVVYLASYLMEDEITKGTLVPLLKDWQLTHHLPLQAVYPRRKHLAPKVSSFIEFIKDHIGTPPYWDAPYVELFSKRQ	not soluble
EAAYSHTPLIMVSADRPERLHGTGANQTIEQRGIFNVVDTDHVVDITDLNSISFARNVIHINVALDVPLVDVLPEVGDPVERVREVIEVDHGEVVLNLNERILVVAGDEAWEVPGLEDVPTIAEPSAPAPYHPVHPLAAQIFAHKEIKPEHIVVVGHPTLHRAVLSLLADVPVTVLTKTDTITGNPQAVGSRVKVTGELDKRWLQICEDASTLCADRVKEVLEGH	not soluble
